Test results: publication doi:10.1101/2025.09.11.675649

Target: Amuc1033^6S-GlcNAc (Akkermansia muciniphila) (UniProt B2UQX4)
Experiment: SEC-MALS

## Amuc1033^6S-GlcNAc (from UniProt B2UQX4 1-581) (enzyme)
  stoichiometry N: 2
